These results are taken from patent US20080226630A1 (SYMPHOGEN A S, published 2008).

To fix the notation:
T1: recombinant RSV protein G, G(B): residues 66-292 of strain 18537 (human respiratory syncytial virus …, UniProt P20896 66-292)
T1 construct: also called soluble recombinant G protein; recombinant protein G
T1 sequence: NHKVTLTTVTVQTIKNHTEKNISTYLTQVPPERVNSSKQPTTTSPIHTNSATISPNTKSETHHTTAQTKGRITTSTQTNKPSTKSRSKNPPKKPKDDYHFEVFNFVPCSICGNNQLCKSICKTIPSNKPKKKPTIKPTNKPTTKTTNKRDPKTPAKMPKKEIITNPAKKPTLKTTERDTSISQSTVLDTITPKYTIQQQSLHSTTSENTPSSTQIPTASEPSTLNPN

T2: recombinant human fractalkine (CX3CL1; R&D systems) (human, UniProt P78423 25-100)
T2 sequence (looked up): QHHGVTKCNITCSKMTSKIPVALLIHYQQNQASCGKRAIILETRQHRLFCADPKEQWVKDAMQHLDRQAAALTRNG

B1: Fab fragment of antibody 796 (Fab)
VH: QVQLVESGGGVVQPGRSLRLSCAASGFSFSHFGMHWVRQVPGKGLEWVAIISYDGNNVHYADSVKGRFTISRDNSKNTLFLQMNSLRDDDTGVYYCAKDDVATDLAAYYYFDVWGRGTLVTVSS
light: DIVMTQTPLSLSVTPGQPASISCRSSQSLLRSDGKTFLYWYLQKPGQSPQPLMYEVSSRFSGVPDRFSGSGSGADFTLNISRVETEDVGIYYCMQGLKIRRTFGPGTKVEIKRTVAAPSVFIFPPSDEQLKSGTASVVCLLNNFYPREAKVQWKVDNALQSGNSQESVTEQDSKDSTYSLSSTLTLSKADYEKHKVYACEVTHQGLSSPVTKSFNRGEC
notes: also called Fab clone 796
B2: Fab fragment of antibody 811 (Fab)
VH: QVQLVQSGAVVETPGASVKVSCKASGYIFGNYYIHWVRQAPGQGLEWMAVINPNGGSTTSAQKFQDRITVTRDTSTTTVYLEVDNLRSEDTATYYCARQRSVTGGFDAWLLIPDASNTWGQGTMVTVSS
light: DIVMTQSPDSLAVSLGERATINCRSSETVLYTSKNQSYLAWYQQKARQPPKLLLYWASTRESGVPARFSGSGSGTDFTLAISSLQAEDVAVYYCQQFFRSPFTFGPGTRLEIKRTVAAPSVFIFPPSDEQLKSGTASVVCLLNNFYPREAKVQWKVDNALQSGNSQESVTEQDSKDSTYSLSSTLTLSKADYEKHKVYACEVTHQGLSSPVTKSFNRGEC
notes: also called Fab clone 811
B3: Fab fragment of antibody 816 (Fab)
VH: EVQLLESGGGLVQPGGSLRLSCVASGFTFSTYAMTWVRQAPGKGLEWVSVIRASGDSEIYADSVRGRFTISRDNSKNTVFLQMDSLRVEDTAVYFCANIGQRRYCSGDHCYGHFDYWGQGTLVTVSS
light: DIVMTQSPLSLPVTPGEPASISCRSSQSLLHSDGRYYVDWYLQKPGQSPHLLIYLASNRASGVPDRFTGSGSGTDFTLKISRVEAEDVGVYYCMQGLHTPWTFGQGTKVDIKRTVAAPSVFIFPPSDEQLKSGTASVVCLLNNFYPREAKVQWKVDNALQSGNSQESVTEQDSKDSTYSLSSTLTLSKADYEKHKVYACEVTHQGLSSPVTKSFNRGEC
B4: Fab fragment of antibody 838 (Fab)
VH: QVQLVESGGGVVQPGTSLRLSCAASGFTFSTFGMHWVRQAPGKGLEWVAVISYDGNKKYYADSVKGRFTISRDNSKNTLYLQVNSLRVEDTAVYYCAAQTPYFNESSGLVPDWGQGTLVTVSS
light: DIQMTQSPSSLSASVGDRVSITCRASQGISNYLAWYQQKPGKVPKLLIYAASTLQSGVPSRFSGSGSGTDFTLTISSLQPEDVATYYCQKYNSAPQTFGQGTKVEIKRTVAAPSVFIFPPSDEQLKSGTASVVCLLNNFYPREAKVQWKVDNALQSGNSQESVTEQDSKDSTYSLSSTLTLSKADYEKHKVYACEVTHQGLSSPVTKSFNRGEC
notes: also called Fab clone 838
B5: Fab fragment of antibody 859 (Fab)
VH: QVQLVESGGGVVQPGRSLRLSCAVSGSSFSKYGIHWVRQAPGKGLEWVAVISYDGSKKYFTDSVKGRFTIARDNSQNTVFLQMNSLRAEDTAVYYCATGGGVNVTSWSDVEHSSSLGYWGLGTLVTVSS
light: DIQMTQSPSSLSASVGDRVTITCRASQGIRNYLAWYQQKPGKVPKLLVFAASTLQSGVPSRFSGSGSGTDFTLTISSLQPEDVATYYCQRYNSAPLTFGGGTKVEIKRTVAAPSVFIFPPSDEQLKSGTASVVCLLNNFYPREAKVQWKVDNALQSGNSQESVTEQDSKDSTYSLSSTLTLSKADYEKHKVYACEVTHQGLSSPVTKSFNRGEC
notes: also called Fab clone 859
B6: Fab fragment of antibody 853 (Fab)
VH: EVQLVQSGAEVKKPGQSLKISCKTSGYIFTNYWIGWVRQRPGKGLEWMGVIFPADSDARYSPSFQGQVTISADKSIGTAYLQWSSLKASDTAIYYCARPKYYFDSSGQFSEMYYFDFWGQGTLVTVSS
light: EIVLTQSPGTLSLSPGERATLSCRASQSVSSNYLAWYQQKPGQAPRLLIYGASSRAAGMPDRFSGSGSGTDFTLTISRLEPEDFAVYYCQQYGNSPLTFGGGTEVEIKRTVAAPSVFIFPPSDEQLKSGTASVVCLLNNFYPREAKVQWKVDNALQSGNSQESVTEQDSKDSTYSLSSTLTLSKADYEKHKVYACEVTHQGLSSPVTKSFNRGEC
notes: also called Fab clone 853
B7: Fab fragment of antibody 810 (Fab, V domains shown)
VH: QVQLVQSGAEVKKSGSSVKVSCRASGGTFGNYAINWVRQAPGQGLEWVGRIIPVFDTTNYAQKFQGRVTITADRSTNTAIMQLSSLRPQDTAMYYCLRGSTRGWDTDGFDIWGQGTMVTVSS
VL: NIQMTQSPSAMSASVGDRVTITCRASQGISNYLVWFQQKPGKVPKRLIYAASSLQSGVPSRFSGSGSGTEFTLTISSLQPEDFATYYCLQHNISPYTFGQGTKLETKR
notes: also called Fab clone 810
B8: Fab fragment of antibody 735 (Fab, V domains shown)
VH: QVQLQESGPGLVKPSETLSLTCTVSNGAIGDYDWSWIRQSPGKGLEWIGNINYRGNTNYNPSLKSRVTMSLRTSTMQFSLKLSSATAADTAVYYCARDVGYGGGQYFAMDVWSPGTTVTVSS
VL: EIVLTQSPATLSLSPGERATLSCRASQSVNSHLAWYQQKPGQAPRLLIYNTFNRVTGIPARFSGSGSGTDFTLTISSLATEDFGVYYCQQRSNWPPALTFGGGTKVEIKR
notes: also called Fab clone 735
B9: Fab fragment of antibody 831 (Fab, V domains shown)
VH: QVQLVQSGAEVKKPGASVKVSCKASANIFTYAMHWVRQAPGQRLEWMGWINVGNGQTKYSQRFQGRVTITRDTSATTAYMELSTLRSEDTAVYYCARRASQYGEVYGNYFDYWGQGTLVTVSS
VL: DIQMTQSPSTLSASVGDRLTITCRASQNIYNWLAWYQQKPGKAPKLLIYDASTLESGVPSRFSGSGSGTEFTLTISSLQPDDFATYYCQQYNSLSPTFGQGTKVEIKR
notes: also called Fab clone 831
B10: Fab fragment of antibody 819 (Fab, V domains shown)
VH: QVQLQESGPGLVKPSQTLSLTCTVSSGAISGADYYWSWIRQPPGKGLEWVGFIYDSGSTYYNPSLRSRVTISIDTSKKQFSLKLTSVTAADTAVYYCARDLGYGGNSYSHSYYYGLDVWGRGTTVTVSS
VL: EIVLTQSPATLSLSPGERATLSCRASQSVSSSLAWYQQTPGQAPRLLIYDASYRVTGIPARFSGSGSGIDFTLTISSLEPEDFAVYYCQQRSNWPPGLTFGGGTKVEIKR
B11: Fab fragment of antibody 818 (Fab, V domains shown)
VH: QVTLRESGPAVVKPTETLTLTCAFSGFSLNAGRVGVSWIRQPPGQAPEWLARIDWDDDKAFRTSLKTRLSISKDSSKNQVVLTLSNMDPADTATYYCARTQVFASGGYYLYYLDHWGQGTLVTVSS
VL: DIQMTQSPSSLSASVGDRVTITCRASQTIASYVNWYQQKPGRAPSLLIYAASNLQSGVPPRFSGSGSGTDFTLTISGLQPDDFATYYCQQSYSYRALTFGGGTKVEIKR
B12: Fab fragment of antibody 825 (Fab, V domains shown)
VH: QVQLVQSGAEVKKPGASVKVSCKVSGYTFTSNGLSWVRQAPGQGFEWLGWISASSGNKKYAPKFQGRVTLTTDISTSTAYMELRSLRSDDTAVYYCAKDGGTYVPYSDAFDFWGQGTMVTVSS
VL: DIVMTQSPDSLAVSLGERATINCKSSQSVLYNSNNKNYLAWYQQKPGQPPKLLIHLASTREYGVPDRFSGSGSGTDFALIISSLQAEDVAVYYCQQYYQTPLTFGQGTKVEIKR
B13: Fab fragment of antibody 858 (Fab, V domains shown)
VH: QVQLVQSGAEVKKPGSSVKVSCKASGGSFDGYTISWLRQAPGQGLEWMGRVVPTLGFPNYAQKFQGRVTVTADRSTNTAYLELSRLTSEDTAVYYCARMNLGSHSGRPGFDMWGQGTLVTVSS
VL: DIQMTQSPSSVSASVGDRVTITCQASQDISNYLNWYQQKPGKAPKLLIFDATKLETGVPTRFIGSGSGTDFTVTITSLQPEDVATYYCQHFANLPYTFGQGTKLEIKR
notes: also called Fab clone 858
B14: Fab fragment of antibody 817 (Fab, V domains shown)
VH: QVQLVESGGGVVQPGRSLRLSCAASGFGFNTHGMHWVRQAPGKGLEWLSIISLDGIKTHYADSVKGRFTISRDNSKNTVFLQLSGLRPEDTAVYYCAKDHIGGTNAYFEWTVPFDGWGQGTLVTVSS
VL: EIVMTQSPATLSASPGERATLSCWASQTIGGNLAWYQQKPGQAPRLLIYGASTRATGVPARFSGSGSGTEFTLAISSLQSEDFAVYYCQQYKNWYTFGQGTKLELKR
notes: also called Fab clone 817
B15: antibody 816 (clone 816) (antibody, human IgG1, kappa, V domains shown)
VH: EVQLLESGGGLVQPGGSLRLSCVASGFTFSTYAMTWVRQAPGKGLEWVSVIRASGDSEIYADSVRGRFTISRDNSKNTVFLQMDSLRVEDTAVYFCANIGQRRYCSGDHCYGHFDYWGQGTLVTVSS
VL: DIVMTQSPLSLPVTPGEPASISCRSSQSLLHSDGRYYVDWYLQKPGQSPHLLIYLASNRASGVPDRFTGSGSGTDFTLKISRVEAEDVGVYYCMQGLHTPWTFGQGTKVDIKR

The Kd is a measure of binding affinity in units of concentration. One may read the koff as a measure of how fast the partners let go of each other. The kon is the rate constant with which the complex forms.

In one test the target is T1, recombinant RSV protein G, G(B): …. Briefly: SPR Biacore 3000, Fab over amine-coupled recombinant protein G. In general terms: In SPR one partner is held on a chip, and binding of the other changes the refractive index at the surface.
With B1, the Kd was 480 pM, the koff was found to be 0.000403 s⁻¹, the kon was 833000 M⁻¹ s⁻¹ and the t1/2 was determined as 0.478 h.
For B2 the same measures were 340 pM, 0.000171 s⁻¹, 498000 M⁻¹ s⁻¹ and 1.13 h.
As for B3, the dissociation constant (Kd) is 90 pM, the off-rate (koff) worked out at 0.000178 s⁻¹, the kon amounted to 2.02e+06 M⁻¹ s⁻¹ and the t1/2 is 1.08 h.
As to B4, the Kd amounted to 190 pM, the koff was 5.06e-05 s⁻¹, the kon is 264000 M⁻¹ s⁻¹ and the t1/2 was 3.83 h.
The matching figures for B5: 120 pM, 4.63e-05 s⁻¹, 380000 M⁻¹ s⁻¹ and 4.17 h.
With B6, the Kd is 790 pM, the koff worked out at 0.0014 s⁻¹, the kon came to 1.77e+06 M⁻¹ s⁻¹ and the t1/2 was found to be 0.138 h.

The target of the next test is RSV protein F (recombinant or purified F protein) (human respiratory syncytial virus, …). Description: SPR Biacore 3000, Fab over amine-coupled recombinant protein F.
Regarding B7, the Kd came out at 200 pM, the koff stood at 0.000348 s⁻¹, the on-rate constant (kon) was 1.74e+06 M⁻¹ s⁻¹ and the t1/2 was found to be 0.55 h.
Take B8: the Kd was determined as 226 pM, the koff stood at 9.18e-05 s⁻¹, the kon was 407000 M⁻¹ s⁻¹ and the t1/2 is 2.17 h.
For the molecule B9, the Kd stood at 1130 pM, the koff came out at 0.00042 s⁻¹, the kon was 372000 M⁻¹ s⁻¹ and the t1/2 came to 0.467 h.
Turning to B10, the Kd amounted to 140 pM, the koff was determined as 4.99e-05 s⁻¹, the kon is 356000 M⁻¹ s⁻¹ and the t1/2 stood at 3.83 h.
For B11, the Kd is 115 pM, the koff is 2.2e-05 s⁻¹, the association rate constant (kon) amounted to 192000 M⁻¹ s⁻¹ and the t1/2 worked out at 8.83 h.
For B12, the Kd is 195 pM, the koff was 0.00015 s⁻¹, the kon came out at 772000 M⁻¹ s⁻¹ and the t1/2 was determined as 1.28 h.
With B13, the Kd stood at 7 pM, the off-rate (koff) was 3.4e-06 s⁻¹, the kon stood at 497000 M⁻¹ s⁻¹ and the t1/2 was 56.7 h.
With B14, the dissociation constant Kd is 820 pM, the koff turned out to be 7.54e-05 s⁻¹, the kon is 92000 M⁻¹ s⁻¹ and the t1/2 was determined as 2.5 h.

A further test deals with T2, recombinant human fractalkine (CX3CL1; …). Description: ELISA on recombinant human fractalkine.
On to B15, for which the binding result is recorded as “no binding”.
